Measured values taken from US9981005 (dated 2018).
Where two headings read alike, the source gives them in different places. Where no end group is shown, it is not given here. [ ]: non-standard residue; d: D form. pT = C[C@@H](OP(=O)(O)O)[C@H](N)C(=O)O; pS = N[C@@H](COP(=O)(O)O)C(=O)O; Flu = fluorescein

Experiments:
[1] = target: T1, Skp1-FBXW7 complex (human FBXW7 residues 263-707 with truncated Skp1) (UniProt P63208 1-163)
[2] = target: T1, Skp1-FBXW7 complex (human FBXW7 …); experiment: fluorescence polarisation

Binder | Kd [1] [nM] | Kd [2] [nM]
Flu-VPP[pT]PPG[pS]H [Flu-VPPpTPPGpSH (doubly phosphorylated fluorescein-tagged DISC1 phosphodegron peptide)] | 1200 | –
AKKAMLSEQNRASPLPSGLLTPPQSGKKQSS (other) [Cyclin E (test agent of the FP assay)] | – | 2000
Flu-VPP[pT]PPGSH [Flu-VPPpTPPGSH (singly phosphorylated fluorescein-tagged DISC1 phosphodegron peptide)] | 2300 | –
